Test results: patent US20220195407, “OPTIMIZATION OF ENGINEERED MEGANUCLEASES FOR RECOGNITION SEQUENCES” (Precision BioSciences, Inc., published 2022)
Where a chain is given by its changes, count along the chain named.

Key:
Assay in all cases: cell_activity; CHO iGFFP reporter
[1] = biological target: T1, LOX 3-4m.765 (artificial (I-CreI derived))
T1 chain: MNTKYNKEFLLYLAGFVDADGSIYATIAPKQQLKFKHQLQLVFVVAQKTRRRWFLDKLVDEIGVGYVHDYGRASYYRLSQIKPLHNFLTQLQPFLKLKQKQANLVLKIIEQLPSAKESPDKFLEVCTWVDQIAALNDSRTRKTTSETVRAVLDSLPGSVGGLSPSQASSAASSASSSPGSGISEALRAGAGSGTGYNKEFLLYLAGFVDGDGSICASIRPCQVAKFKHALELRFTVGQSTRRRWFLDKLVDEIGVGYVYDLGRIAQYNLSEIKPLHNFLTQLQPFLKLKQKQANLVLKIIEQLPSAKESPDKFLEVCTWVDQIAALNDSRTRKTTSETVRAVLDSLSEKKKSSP
From the text: (§1) A CHO cell reporter system (see WO/2012/167192, FIG. 3) was used to determine whether the engineered meganucleases generated in these studies could recognize and cleave the modified LOX 3-4 recognition sequences in Table 87. To perform the assay, a pair of CHO cell reporter lines were produced, which carried a non-functional Green Fluorescent Protein (GFP) gene expression cassette integrated into the genome of the cell. The GFP gene in each cell line was interrupted by a pair of recognition sequences such that intracellular cleavage of either recognition sequence by a meganuclease would stimulate a homologous recombination event resulting in a functional GFP gene. In both cell lines, one of the recognition sequences was derived from the LOX 3-4 recognition sequence (i.e., those sequences disclosed in Table 87), and the second recognition sequence was specifically recognized by a control meganuclease called “CHO 23/24.” CHO reporter cells comprising a recognition sequence derived from the LOX 3-4 recognition sequence and the CHO 23/24 recognition sequence are referred to herein as “test cells.”
(§2) Novel engineered meganucleases derived from the LOX 3-4x.109 meganuclease were prepared by making amino acid substitutions at one or more positions in the first subunit and one or more positions in the second subunit. These engineered meganucleases were then evaluated for cleavage of the LOX 3-4 recognition sequence modified to have an ACAA center sequence (SEQ ID NO: 9) in the CHO reporter assay according to Example 1.

[2] = biological target: T2, LOX 3-4m.684 (artificial (I-CreI derived))
T2 chain: T1 chain with R139K, R263T, A265T
From the text: as §1, §2

[3] = biological target: T3, LOX 3-4m.750 (artificial (I-CreI derived))
T3 chain: T1 chain with R50C, R139K, S239A, A265S
From the text: as §1, §2

[4] = biological target: T4, LOX 3-4m.1269 (artificial (I-CreI derived))
T4 chain: T1 chain with K48H, R72H, A73C, S239T, R263G, A265S
From the text: as §1
as §2, with “ATAA” for “ACAA”, “157)” for “9)”

[5] = biological target: T5, LOX 3-4m.1293 (artificial (I-CreI derived))
T5 chain: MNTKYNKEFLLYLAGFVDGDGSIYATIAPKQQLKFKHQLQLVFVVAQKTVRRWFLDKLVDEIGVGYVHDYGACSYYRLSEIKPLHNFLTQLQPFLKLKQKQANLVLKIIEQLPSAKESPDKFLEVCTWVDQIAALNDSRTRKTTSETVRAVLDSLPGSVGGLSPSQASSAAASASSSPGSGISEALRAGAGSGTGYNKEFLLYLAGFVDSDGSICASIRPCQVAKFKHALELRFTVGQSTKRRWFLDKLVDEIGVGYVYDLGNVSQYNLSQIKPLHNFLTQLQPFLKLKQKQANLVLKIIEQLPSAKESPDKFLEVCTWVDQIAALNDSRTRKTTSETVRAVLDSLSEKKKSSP
From the text: as §1
as §2, with “ATAA” for “ACAA”, “157)” for “9)”

[6] = biological target: T6, LOX 3-4m.1236 (artificial (I-CreI derived))
T6 chain: T1 chain with K48H, R50T, R139K, S239A, R241K, R263Q, I264V, E271Q
From the text: as §1
as §2, with “ATAA” for “ACAA”, “157)” for “9)”

[7] = biological target: T7, LOX 3-4m.1237 (artificial (I-CreI derived))
T7 chain: T1 chain with K48A, R50I, R139K, S239K, R241E, R263G, I264V, E271Q, R330K
From the text: as §1
as §2, with “ATAA” for “ACAA”, “157)” for “9)”

[8] = biological target: T8, LOX 3-4m.1329 (artificial (I-CreI derived))
T8 chain: T1 chain with K48H, R139K, S239K, R241C, R263G, I264R, A265S, E271Q, R330K
From the text: as §1
as §2, with “ATAG” for “ACAA”, “184)” for “9)”

[9] = biological target: T9, LOX 3-4m.1353 (artificial (I-CreI derived))
T9 chain: T1 chain with R139K, K227R, S239K, R241C, V250A, R263S, I264R, A265S, E271Q
From the text: as §1
as §2, with “ATAG” for “ACAA”, “184)” for “9)”

[10] = biological target: T10, LOX 3-4m.1345 (artificial (I-CreI derived))
T10 chain: T1 chain with R72G, R139K, S239K, R241C, R263G, I264R, A265S, E271Q, R330K
From the text: as §1
as §2, with “ATAG” for “ACAA”, “184)” for “9)”

[11] = biological target: T11, LOX 3-4m.1415 (artificial (I-CreI derived))
T11 chain: T1 chain with Q80E, R139K, S239K, R241C, V250A, R263G, I264R, A265S, E271Q
From the text: as §1
as §2, with “ATAG” for “ACAA”, “184)” for “9)”

B1: LOX 3-4 ACAA (dsDNA)
DNA 1: GTATAGCATACAATATACGAAG
DNA 2: CTTCGTATATTGTATGCTATAC
[1]
  activity: 9.32 % GFP
[2]
  activity: 9.14 % GFP
[3]
  activity: 9.32 % GFP

B2: LOX 3-4 ATAA (dsDNA)
DNA 1: GTATAGCATATAATATACGAAG
DNA 2: CTTCGTATATTATATGCTATAC
[4]
  activity: 8.64 % GFP
[5]
  activity: 8 % GFP
[6]
  activity: 9.28 % GFP
[7]
  activity: 8.13 % GFP

B3: LOX 3-4 ATAG (dsDNA)
DNA 1: GTATAGCATATAGTATACGAAG
DNA 2: CTTCGTATACTATATGCTATAC
[8]
  activity: 15.5 % GFP
[9]
  activity: 15.6 % GFP
[10]
  activity: 14 % GFP
[11]
  activity: 13.1 % GFP
